To fix the notation:
B1: BAG family molecular chaperone regulator 5 (Rattus norvegicus (Rat)), Q5QJC9 (parent)
chain: MDMGNQHPSISRLQEIQREVKSIEQQVVGFSGLSDDKNYKRLERILTKQLFEIDSVDTEGKGDIQQARKRAAQDTERLLKELEQNANHPHRIEIKNIFQEAQALVKEKTVPFYSGSNCVTSEFEEAIQDIILRLTHVKTGGKISLRKARYHTLTKICAVQEIIEDCVRKQPSLPLSEDVHPSVAKINSVMCEVNKARGTLIALLMGVDSSETCRHLSCVLSGLMADLDALDVCGRTEIRNYRREVVEDINKLLKYLDLEEEADNTHAFDLGQNHSIIKIENVLKRMREMKNELLQAQSPPELYLRSKTELQGLIGQLDEVSLEKNPCIREARRRAVIEVQTLITYLDLKEALEKRKLFPCEETPPHKAVWNVLGNLSEIQGEVLSFGGNRTDKNYIRLEELLTKQLLTLDAVDPLGEEKCKAARKQAVKLAQNILSYLDMKSDEWEY

The values that follow come from IntAct's records for PubMed 21358815.

The assay covers variants of B1. The settings on record: with chip_human STUB1, Q9UNE7.
Sequence of chip_human STUB1, Q9UNE7 (Q9UNE7 whole entry): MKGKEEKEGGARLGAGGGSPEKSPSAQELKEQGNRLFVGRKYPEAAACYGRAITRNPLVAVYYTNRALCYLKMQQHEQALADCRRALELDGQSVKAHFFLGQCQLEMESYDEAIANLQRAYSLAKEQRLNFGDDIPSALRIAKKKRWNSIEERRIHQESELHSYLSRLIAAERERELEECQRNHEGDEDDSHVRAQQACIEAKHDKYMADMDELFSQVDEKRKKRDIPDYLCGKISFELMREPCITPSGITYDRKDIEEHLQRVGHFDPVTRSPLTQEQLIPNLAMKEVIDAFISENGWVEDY
For D54A;R68A;D228A;R242A;D318A;R332A;D410A;R424A, the “effect of a mutation on the interaction” value was “disrupting interaction”.
